# Assay results published in the domain aggregation screens of Martell et al. (2025).
# Assay: soluble fraction after stress (log2 fold change); higher = more stays soluble; pooled small domains, quantitative proteomics
# Details: stress: 50 degC
# In short: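 Custom libraries of small protein domains were pooled and measured in a high-throughput format, with quantitative proteomics as the read-out. Each library was stressed at 50°C. The value is the log2 fold change in the amount of each protein that stays soluble after stress, used as a measure of aggregation propensity; higher values mean more of the protein stays soluble.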
row,Sequence,soluble fraction (log2)
1,HMVVQTELVRISITSLSGEDIRRLVQIKVVGATIEPFEGGGFLITGTAEQIAKAKDFLNSMSTEF,-0.855
2,HMVVRKHDRYYTPEHRKLLMDTYERTNKYPTKQDMSELAKIIGVLPIKILWWYTHRRRQDRRKGEESSSP,-0.0096
3,HMVVTMEKIVVNDGGIRIDTYLADKLNISRSKVAKMLENNILVNNVKVKPSYKVTNNDIIEVEEYV,-0.936
4,HMVVVLPGETIKIDLIREGKDKQALGYLEDGTMIVVDNAKHLIGKNVEIEIDNVLPKEAGRVIFASLHGA,-0.109
5,HMVVVMNADAEADEIKRVKWNLEQMLFRTQVIYGVKRIVIGAIGDQREVDLSEIEQMPKVDKIVRISK,-1.4
6,HMVVVPDVKGLKIEEAAEFFKNNNLHYNVIDSVFSKDVEPGAIVELSPLAGSKVKEGRIVFITVNALTS,-0.651
7,HMVVVVELTENEKAVQDVLTKNEGSLEISDLKTKLELSGKQWDKALKGLAKHGITQVAKVDGVVTVSL,-0.303
8,HMVWMIEKDQSVILVNKLERIQVEALGKALENGNFGDRIRVINNKSGQKLLGIVESEKKIQIISKI,-2.44
9,HMVYLPGEEIPLKIIQEGKESGQGVGYLEDGTMVVVENGRRYLNQEVLVQVTKILQTNAGRLIFAVP,-0.346
10,HMVYLPSSIKNIPTKYGEMMVANFKMDELQANSKNGWVSMVISERREPSEKGATHYAYVNTY,0.432
11,HMVYNQYILTQSVRLREEPGISGRVIRLLETGTTVELVDTVVVNKDDYDWVWVKLSDGAVGWIIKSAIDI,-0.529
12,HMWDEMKDQKLVEALLLLREDERKLIYQHVFEERTFDDISRINGLPPYKVKGIYYYAIRKIRKWMG,-1.51
13,HMWGQDVLFTIDKKEFKGKLLEQSDKHTTFLPDGQKTPQKIPNRLIKEIHLGSNKIIDFGNDFLI,-0.179
14,HMWPDDAIALPTRDGQDVGGAQERTMLAFASGAAGIRTVEEINPDGSITRLRTRYGWPTFETEGARTAAAE,-0.109
15,HMWTIDPLDWKTENADQIVEKVMSEAKENAIILLHDRYEASVEAALRIVDLLKEQGYTFVTADKLV,-0.257
16,HMWTKKELWNAIAKLPKKQRTVVMMRIAQNLPYKDISEITGMSIGSAKVNYHHAVNSLKQWLS,-0.59
17,HMWTPLVVAVLIGGTHRFGELRAAVGGITPKVLTETLRSMERDGLVVREQTPGVPPRVDYALTPLGA,-0.319
18,HMYAGTWISESGQWKYRNDDGSFAKGWFQDLDSRWYYFDANGHMLSDTLTPDGYRLGEDGAWVND,-0.638
19,HMYDESVFTGEYHYYYEKLSDDDKLIYRQIYAMMQKRMDGISLNTTDTDNVSRIQQFVLLDNPQF,-3.04
20,HMYDKKVFRLLFILNQLDSRKKVSTGELAKEFNVSPRTVQRDIVLLNTTGFPIISLEKGYHSFMEGFSLK,-1.12

row,Sequence,soluble fraction (log2)
1,HMYDPVNEIGRVLKKIRQERSLTLDNVAEITGVSKTMLGQIERGVSVPTISVLWKIAKGLQVSLSTLLNE,-0.826
2,HMYEGLPVTLIIDGRVIEANLAKANRDMAWLERELANSGVRSHHDVFFATLDSRGQLYYQVKN,-0.143
3,HMYELDIYPNPAIDKINVLLPSSTTLPVKVEIYDIMGKKVNSLLTTKKAFTIETDQFEKGIYFVKA,0.0213
4,HMYELREGDVVSVRILSQTGQNSYIASFAGGRFSVTSERAFAPGTVFSASVSLKDGTLVLSPL,-0.568
5,HMYFEDEELDRFVGTPAGAYTEEDVEEFRDVLLSLDIEEVPSWVRSLQLRGIDFPETLRPELYLL,-3.14
6,HMYGQEVKVLGLFGDRAFIKVDEKSAVIRIGQSHQNVQLKSISNQKAILLVDNKDIALGLGDSYQSA,-0.244
7,HMYGVAEFDEKGNVLSIEEKPVQPKSNYAVVGLYFYPNKVVGVASGIKPSARGELEITTVNQTFLRDEELK,0.0827
8,HMYHNKFADLAGFIAFNEKNEEIFTFGKYKGQNVKEVFQRDIGYYGWLQNADFPLYTKKVFTAIQLRSR,-2.16
9,HMYHPGFEALREVARQGSFIKAARALGISGPAVSKQIKSLEARLNLVLLHRTTRAVTLTEAGQRLTEILD,-2.07
10,HMYIDNVTIYDVGFNERIVHALERAGVKNLYDLSQMNFYQLQRIRNLGASSLEKVINRIHSYGILLKNES,-1.2
11,HMYIEKTAYINDTAVNVRKSATTDSDVIKVLALNTEITIIGEENDWYKVKSGNDIGYIAKRLVSDQKKE,0.0858
12,HMYIKYETVLQNITERIAALRKNGTLVLDGERTLAAEFDASRGTIRKAMRQLEENGTILREGYVTRILPE,-1.61
13,HMYIVVPDLSKKDINEVANILAAQSLRFQVIDSANFRSDFPKNAVISQKPLAGSEVKVNKKIYLQLNPS,-0.345
14,HMYLEARVKSTTPILSKPNELGKSLGKLYTNDFVALVSLHKNGLDSYYRTANGGYINAADVVIDRDV,-0.663
15,HMYLPLREVVFNALRTAIIHGEFKPGERLMEMHLAKSLGVSRTPVREAMRMLELEGLVVMIPKKGAEVAR,-3.13
16,HMYMKMNDRIRSRRKELKMTQSVLAKLVGVNRVTITGWESGDYKPGGENLQALAAALEKTPQWLLDGKD,-0.996
17,HMYMTTADADMWKYVNTGRYNNDIQLMEEYKNRSMDSFEVITPEQQRKYNKAAMNLNSYYAWADPSYKPNP,-0.257
18,HMYMWQVEDLLRANELDIENIKKTIIDHYQLDDAQKSELTRWYEDLINMMRLEGVTKEGHLQINK,-1.41
19,HMYNSYALTARELELVNYVLKGNSRREMAEDSGLKENTVASYMKRLYRKIKVHSRKELKELFM,-0.0805
20,HMYPDNEQTLSKLAFEFFKKRNIPISQSNINQIVTKSLGDRENLYNELLKIENFSTSGKKLTDNVIKKLIN,0.00831

row,Sequence,soluble fraction (log2)
1,HMYPFSEETLKEKIREYLKTNRSINRRVLEREFYIRKQTALNWLNRLVDSGFLIKEGVRNSPVYFLAE,-0.691
2,HMYPMQNYSTIIGVIELRQQSVGYATTQKRYGIGSSTVTLIMKRFKELGLTLEELRAMPPKAVEVAFYPPE,-1.11
3,HMYPNEFPRKVMSVFESSGLEMFRTIEMLLAIPEYETPLPYGSGVSRSDIFVLAKSAGNLVSITV,0.00886
4,HMYQFFVDPGQIQGKRVTITGSDVNHIKNVLRMRIGEEIAVSNGKDGLEYRFGIDEILEDEVIGTLRFVKE,-0.968
5,HMYRIGELAKLADVTPDTIRYYEKQQMMDHDVRTEGGFRLYSDNDLQRLKFIRYARQLGFTLEAIRELLSI,-1.81
6,HMYRWSEEIFEKLRSDIMAALDLSREQNDEEIYRFIETEVEEYSQNNLLTLKEREQLEHLLFNSL,-1.3
7,HMYSKVSFTVSVGMTSERVSASLKALGIIDDSAKFNRYLVSNGYSTRIKVGTVELQAGQSYAEIASKLV,-0.826
8,HMYSLSELERIKNFLTGYMSDYSIMMLDANEITNQVDISLKDYSDDNIESIKAAVLSHGGKTDYLNFIDDS,-0.589
9,HMYSQEEKRYMEIMEIKPQELSAENLKKQYKKLVKKYHPDLHQDDKQAAEEKFKQLTNAYQVLMRRF,0.0779
10,HMYSSASKEEIDQLMKRLILNLDAKGYFWPQDKEKSLKLYLHNLFSKLPLNSSDIRFLHGLIRALSEE,-1.08
11,HMYSSIIGIAFTRAENKPAAPTGGSYSNPHPVDGNWKAAPYDGDGNLWYSIRHFNENVDIQDREWSDPTLG,-0.24
12,HMYSYSGSVINTYKVPVSVVLKDANGSAIASWDLPVDQSLGISAKDIATSSGTIEITGDGVNETKTVTFTK,-0.0188
13,HMYTGSEGMAGLEGRAVTEVGPEAGTVLVKGEYWQARSDEPIATDRKIRVIRLEGLRLRVAEIHPEG,-0.0371
14,HMYTPDYLSDLMVRMAHHSTAIEGNTLTQGETKSVLVDGYIPRAMDMRELNEVLNYKAFMTFLVE,-0.0969
15,HMYTTHTQSELNEAARFNGRATYQKGIYYNESKKEHFKVVNGKYQALPNVKQVNGDSWIDKTGITHKG,-0.171
16,HMYTVQQLARLAGITPRTLRHYDAIGLLKPTRVGENGYRYYGSEALLRLQSILLYRELDMPLEDIRRVLDS,-3.15
17,HMYVPEVPVPDLLGRSEEEAKNLIEDLGLVFKVSKREYSKEYDEGHVMEQSVDEGAKVKENYPVEVVISR,0.196
18,HMYYDDEELDDYRGKASDAYTAAEVEQFEEVLTTMRPEEVHGWLRSLQLRGVALPDALKDEAYMIVSEQAE,-0.252
19,HMYYIITNGKYWVIENPIRPGEYMESTKSSNAKQFTFKQAKNLLNARSKKLGWIRNGYSMVGED,-2.22
